In patent US20260049134A1 (UNIVERSITY OF FLORIDA RESEARCH FOUNDATION, published 2026):
Numbering of substitutions follows the chain as printed. Names and notes keep the numbering of the source.

T1: CADM1-His (Acro Biosystems) (human, UniProt Q9BY67 45-374)
T1 construct: Bought; also called CADM1/IGSF4A; not shown: His tag of the bought protein
T1 sequence: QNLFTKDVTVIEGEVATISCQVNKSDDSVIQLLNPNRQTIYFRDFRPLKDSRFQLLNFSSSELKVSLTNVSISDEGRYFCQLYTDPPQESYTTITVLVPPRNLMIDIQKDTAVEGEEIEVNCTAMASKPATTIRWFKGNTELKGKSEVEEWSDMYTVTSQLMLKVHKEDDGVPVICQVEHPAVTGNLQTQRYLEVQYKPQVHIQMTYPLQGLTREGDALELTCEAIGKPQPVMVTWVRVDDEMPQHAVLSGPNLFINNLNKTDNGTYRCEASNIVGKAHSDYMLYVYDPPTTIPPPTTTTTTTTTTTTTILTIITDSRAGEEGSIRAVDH

T2: PTPRG-Fc (ECD of human PTPRG, aa 20-736, fused to human Fc gamma 1) (human, UniProt P23470 20-736)
T2 construct: Made in-house in Expi293 cells; Used in ELISA and SPR; also called recombinant PTPRG-Fc; PTRPG; not shown: human IgG1 Fc (Fc gamma 1) after the hinge
T2 sequence: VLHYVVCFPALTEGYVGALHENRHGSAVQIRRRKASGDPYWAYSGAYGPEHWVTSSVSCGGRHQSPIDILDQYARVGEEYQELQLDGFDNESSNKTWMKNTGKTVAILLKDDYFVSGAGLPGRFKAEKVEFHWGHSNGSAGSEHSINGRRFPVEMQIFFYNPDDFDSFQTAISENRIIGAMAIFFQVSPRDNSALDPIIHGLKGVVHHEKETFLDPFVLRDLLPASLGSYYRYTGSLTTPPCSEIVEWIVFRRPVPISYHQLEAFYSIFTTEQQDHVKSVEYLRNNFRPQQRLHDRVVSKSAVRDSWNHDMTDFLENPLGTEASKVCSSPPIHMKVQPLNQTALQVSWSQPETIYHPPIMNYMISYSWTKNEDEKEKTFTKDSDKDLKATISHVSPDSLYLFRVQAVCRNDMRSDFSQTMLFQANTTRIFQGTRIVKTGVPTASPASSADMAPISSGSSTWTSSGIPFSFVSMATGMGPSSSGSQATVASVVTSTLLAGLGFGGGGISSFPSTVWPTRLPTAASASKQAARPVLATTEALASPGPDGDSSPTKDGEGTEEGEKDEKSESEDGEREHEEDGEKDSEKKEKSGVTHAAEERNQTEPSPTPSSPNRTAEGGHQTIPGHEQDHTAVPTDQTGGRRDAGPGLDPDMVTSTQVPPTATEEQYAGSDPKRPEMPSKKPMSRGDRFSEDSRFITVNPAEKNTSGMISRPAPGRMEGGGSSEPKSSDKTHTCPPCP

T3: GARS-His (Sino Biological) (human, UniProt P41250 37-739, limits assumed)
T3 construct: Bought; also called GARS1; glycyl-tRNA synthetase; not shown: His tag of the bought protein
T3 sequence: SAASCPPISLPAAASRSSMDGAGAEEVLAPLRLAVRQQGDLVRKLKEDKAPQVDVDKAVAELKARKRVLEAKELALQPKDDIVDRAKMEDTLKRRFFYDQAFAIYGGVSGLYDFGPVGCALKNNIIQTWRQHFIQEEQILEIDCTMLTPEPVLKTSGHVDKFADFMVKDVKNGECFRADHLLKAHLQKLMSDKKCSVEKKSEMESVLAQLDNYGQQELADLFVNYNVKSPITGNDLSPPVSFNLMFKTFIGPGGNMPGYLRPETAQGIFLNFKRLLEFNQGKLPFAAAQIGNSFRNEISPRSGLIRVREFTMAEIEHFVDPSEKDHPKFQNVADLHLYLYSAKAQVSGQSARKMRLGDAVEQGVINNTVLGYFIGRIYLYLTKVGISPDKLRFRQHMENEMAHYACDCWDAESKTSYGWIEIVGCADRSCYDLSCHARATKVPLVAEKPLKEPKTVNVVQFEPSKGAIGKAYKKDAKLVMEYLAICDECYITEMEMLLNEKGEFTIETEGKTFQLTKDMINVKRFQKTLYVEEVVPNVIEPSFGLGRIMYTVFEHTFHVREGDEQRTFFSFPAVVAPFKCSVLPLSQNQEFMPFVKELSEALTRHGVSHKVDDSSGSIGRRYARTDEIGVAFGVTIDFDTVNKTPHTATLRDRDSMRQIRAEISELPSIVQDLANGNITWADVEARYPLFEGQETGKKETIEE

B1: HW-1 chimeric rabbit-human IgG1 LA/LA/PG (antibody, V domains shown)
VH: QSLEESGGGLFKPTDTLTLTCTASGFSLGSSYAISWVRQAPGKELEWIGTIDSGRAYYARWAKSRSTITRNTNENTVTLKMTSLTAADTATYFCARDLIPTYSQDIWGPGTLVTISS
VL: SFVLTQPASVQVNLGQTVSLTCTADTLSRRYASWYQQKPGQAPVLLIYRDTSRPSGVPDRFSGSSSGNTATLTISGAQAGDEADYYCATSDGSGNSYQYVFGGGTQLTVTS
notes: Fc-silenced (L234A/L235A/P329G) IgG1, lambda; Alexa Fluor 647-labeled in single-step flow cytometry; Prototype of cluster C-1
B2: HW-17 chimeric rabbit-human IgG1 LA/LA/PG (antibody, V domains shown)
VH: QSLGESRGRLVTPDETLTLTCTVSGIDLSSNAMSWVRQAPGEGLEWIGTINTGGRAYYASWAKGRFTISRTSTTVDLKMTSLTTEDTATYFCARERYSDGRAYDIWGPGTLVTISS
VL: B1 VL with R49T, T51S, S52N, V57I, S90D, N95S, S96I, S111G
notes: Fc-silenced (L234A/L235A/P329G) IgG1, lambda; Alexa Fluor 647-labeled in single-step flow cytometry; Cluster C-1
B3: HW-113 chimeric rabbit-human IgG1 LA/LA/PG (antibody, V domains shown)
VH: QKQLVESGGGLVQPGGSLTLTCTVSGFSLNKYYMGWFRQAPGKGLEWIGVISRSGDTYYSSWAKGRFTISKASTTVDLRITSPTTEDTATYFCARDASSPGFHGDRLDLWGQGTLVTVSS
VL: B1 VL with R30S, S93I, N95S, S96N, Q98L, Y99W, S111G
notes: Fc-silenced (L234A/L235A/P329G) IgG1, lambda; Alexa Fluor 647-labeled in single-step flow cytometry
B4: TH9-0022 (antibody, human IgG1, kappa, L234A L235A, V domains shown)
VH: QSLEESGGRLVTPGTPLTLTCTVSGFSLSSYAMNWVRQAPGKGLEWIGIINSYGSTYYASWAKGRFTISKTSTTVDLKITSPTTEDTATYFCARVTYDSYGYGYAPYGMDLWGPGTLVTVSS
VL: LVMTQTPSSTSNAVGGTVTIKCQASQSIGNVLAWYQQKPGQPPKLLIYAASTLASGVPSRVGGSRSGTEYTLTISGVQREDAATYYCLGSDSDSDIAFGGGTELEILR
notes: also called TH9-022; negative control IgG1
B5: HW-8 chimeric rabbit-human IgG1 LA/LA/PG (antibody, V domains shown)
VH: QSLEESGGRLVTPGTPLTLTCTVSGFSLSSYAMSWVRQAPGKGLEWIGAISTGGSTTYASWAKGRFTISKTSSTTVDLKMTSLTTEDTATYFCVRHFRLWGPGTLVTISS
VL: QVLTQTPSSVSAAVGGTVTIKCQASQSIGSALAWFQQKPGQRPKLLIYRASNLASGVPSRFKGSGSGTEFALTISGVQREDAATYYCLGGAAAVWAFGAGTNVEIKR
notes: Fc-silenced (L234A/L235A/P329G) IgG1, kappa; Alexa Fluor 647-labeled in single-step flow cytometry; Cluster C-45
B6: HW-101 chimeric rabbit-human IgG1 LA/LA/PG (antibody, V domains shown)
VH: QEQLVESGGRLVTPGTPLTLTCKASGFSLGKYDMSWVRQAPGKGLEWIGTIYAGSGSTWYASWAKGRFTISKTSTTVDLKMTSLTTEDTATYFCARDFLGVNSIWGPGTLVTISS
VL: B1 VL with R30S, G40D, Y48H, S65N, N95S, S96N, Y97F, Q98H, Y99F, S111G
notes: Fc-silenced (L234A/L235A/P329G) IgG1, lambda; Alexa Fluor 647-labeled in single-step flow cytometry; Cluster C-97
B7: HW-97 chimeric rabbit-human IgG1 LA/LA/PG (antibody, V domains shown)
VH: QKQLVESGGRLVTPGTPLTLTCTVTGIDLSSHGMSWVRQAPGKGLEWIGVIYPSGSTWYASWARGRFTISKTSTTVDLKMTSLTTEDTATHFCARGDVGGADNNIWGPGTLVTVSS
VL: B1 VL with N13D, D25E, R30S, N95S, S111G
notes: Fc-silenced (L234A/L235A/P329G) IgG1, lambda; Alexa Fluor 647-labeled in single-step flow cytometry; Prototype of cluster C-97
B8: HW-42 chimeric rabbit-human IgG1 LA/LA/PG (antibody, V domains shown)
VH: QSVKESEGGLFKPADTLTLTCTVSGFSLSSNEISWVRQAPGEGLEYIGIIDTGGRAYYAVWARSRSTITRNTNLNTVTLKMTSLTAADTATYFCARGGVDTEWYAFSSWGPGTLVTVPS
VL: B1 VL with Y48F, N68D, N95S, S96N, S111G
notes: as for B2
B9: HW-70 chimeric rabbit-human IgG1 LA/LA/PG (antibody, V domains shown)
VH: QSLEESGGRLVTPGTPLTLTCTVSGFSLSSNAMSWVRQAPGKGLEWIGTIDGYGYTYYASWAKGRFTVSKTSTTVDLKITSPTTEDTATYFCAREIYLGSNFWGPGTLVTISS
VL: B1 VL with S90A, N95S, Y99F, S111G
notes: as for B2
B10: HW-25 chimeric rabbit-human IgG1 LA/LA/PG (antibody, V domains shown)
VH: QSLEESGGRLVTPGTPLTLTCTVSGFSLSSYAMGWVRQAPGKGLEWIGIIDSRGSTYYATWAKGRFTISKTSTTVDLKITSPTTEDTATYFCAREDSYYYDSFNLWGPGTLVTVSS
VL: B1 VL with N95S, Y99C, S111G
notes: as for B2
B11: TH9-0022 (antibody, human IgG1, kappa, L234A L235A, V domains shown)
VH: B4 VH
VL: B4 VL
notes: also called TH9-022; negative control

These binders were tested against T1, CADM1-His (Acro Biosystems) (assay: ELISA on coated protein).

Q: Does B1 bind?
A: Result: no binding (tested: 150 ng IgG1 per well)

Q: Does B2 bind?
A: Result: no binding (tested: 150 ng IgG1 per well)

Q: Does B3 bind?
A: Result: no binding (tested: 150 ng IgG1 per well)

Q: Does B4 bind?
A: Result: no binding (tested: 150 ng IgG1 per well)

Q: Does B5 bind?
A: Result: no binding (tested: 150 ng IgG1 per well)

The binders below were run against T2, PTPRG-Fc (ECD of human PTPRG, aa …) (assay: ELISA on coated protein).

Q: Does B6 bind?
A: Result: no binding (tested: 150 ng IgG1 per well)

Q: Does B3 bind?
A: Result: no binding (tested: 150 ng IgG1 per well)

Q: Does B7 bind?
A: Result: no binding (tested: 150 ng IgG1 per well)

Q: Does B4 bind?
A: Result: no binding (tested: 150 ng IgG1 per well)

Q: Does B5 bind?
A: Result: no binding (tested: 150 ng IgG1 per well)

The binders below were run against T3, GARS-His (Sino Biological) (assay: ELISA on coated GARS-His).
Procedure: Recombinant purified ECDs (50-150 ng) of each putative target protein were coated, incubated with 150 ng of the indicated primary antibody, and binding was detected using a peroxidase-conjugated anti-human Fab secondary antibody. Heatmap represents averages of technical triplicates. (8B) Target validation via siRNA knockdown. H929 cells were transfected with siRNA pools targeting the putative antibody targets ICAM1, CADM1, and PTPRG. Cells were then subjected to cognate IgG binding analysis via flow cytometry. (NT, non-targeting siRNA).
ELISA ELISA was conducted as described previously. Briefly, 50-150 ng of antigen was coated overnight in half-area 96-well plates at 4° C., blocked with 3% BSA at 37° C. for 1 h, and 150 ng of chimeric rabbit/human IgG1 was added, incubating for 2 h at 37° C. […] After incubating at 37° C. for 15 min-1 h (depending on intensity of controls), data were acquired using a SpectraMax M5 plate reader (Molecular Devices).

Q: Does B8 bind?
A: Result: no binding (tested: 150 ng IgG1 per well)

Q: Does B9 bind?
A: Result: no binding (tested: 150 ng IgG1 per well)

Q: Does B10 bind?
A: Result: no binding (tested: 150 ng IgG1 per well)

Q: Does B11 bind?
A: Result: no binding (tested: 150 ng IgG1 per well)
